Measured values as given in US20130244255A1, “ANTIBODIES DIRECTED TO GPNMB AND USES THEREOF” (priority 2006, published 2013).
One block for each substance: values may come before it.

Legend:
[1] = target: GPNMB (CG56972) as expressed by human cell lines (human) (UniProt Q14956); test: FACS on UACC-62 cells, antibody 1 ug/mL
[2] = target: GPNMB (CG56972) as expressed by human cell lines (human) (UniProt Q14956); test: flow cytometry on SK-MEL-2 cells, anti human IgG PE; control sample
[3] = target: GPNMB (CG56972) as expressed by human cell lines (human) (UniProt Q14956); test: flow cytometry on HEK293 cells transfected with GPNMB plasmid, secondary antibody alone (background); on empty-vector cells printed as 5.86
[4] = target: GPNMB (CG56972) as expressed by human cell lines (human) (UniProt Q14956); test: flow cytometry on HEK293 cells transfected with GPNMB plasmid, PE-conjugated secondary antibody; the same sample on empty-vector cells is printed as 7.96

Sequence of GPNMB (CG56972) as expressed by human cell lines (human) (Q14956 23-492): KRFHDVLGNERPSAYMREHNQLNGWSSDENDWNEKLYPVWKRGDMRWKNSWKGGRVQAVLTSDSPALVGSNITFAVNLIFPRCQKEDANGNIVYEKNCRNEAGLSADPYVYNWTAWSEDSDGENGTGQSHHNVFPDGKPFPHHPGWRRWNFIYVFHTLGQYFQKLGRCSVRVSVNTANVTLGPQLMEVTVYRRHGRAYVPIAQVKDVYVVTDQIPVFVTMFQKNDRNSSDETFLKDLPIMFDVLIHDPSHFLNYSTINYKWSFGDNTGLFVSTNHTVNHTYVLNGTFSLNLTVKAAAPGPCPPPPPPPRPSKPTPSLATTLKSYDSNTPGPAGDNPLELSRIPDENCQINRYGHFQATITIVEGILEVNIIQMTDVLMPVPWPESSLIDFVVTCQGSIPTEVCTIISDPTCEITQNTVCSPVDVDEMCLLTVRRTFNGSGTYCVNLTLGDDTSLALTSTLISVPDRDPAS

Geo Mean Ratio (relative to pK16) [1]: 1.9
Substance: CR011.2.6.2 (antibody)

Geo Mean [2]: 3.03 | Median [2]: 2.84
Substance: Control (antibody)

Geometric mean [3]: 7.69
Substance: Secondary Ab-PE (antibody)

Geometric mean [4]: 8.63
Substance: isotype-matched control IgG2 antibody
